Source: patent US7521047 (GPC BIOTECH, dated 2009)

Assays:
[1] = target: T1, human MHC class II DR protein (DRA*0101/DRB1*0401), purified from PRIESS cells (human, UniProt P01903 26-254; P01911 30-266, limits assumed); test: SPR (BIAcore), scFv, chip density 500 RU MHCII
T1 construct: mature; also called HLA-DR protein; MHCII
T1 MHC II alpha: not shown
T1 MHC II beta: not shown

BSA [2] = target: T2, BSA (bovine, UniProt P02769 25-607); test: ELISA, coated antigen, Fab 100 ng/well, read at 370 nm
T2 construct: negative control antigen; also called bovine serum albumine
Experimental: (§1) After washing in PBS the anti-human IgG F(ab')_2-peroxidase-conjugate at a 1:10,000 dilution in TBS (supplemented with 5% w/v non-fat drymilk/0.05% v/v Tween 20) was added to each well for 1 h. Final washes were carried out in PBS followed the addition the substrate POD (Roche).

lysozyme = target: T3, lysozyme; test: as above
T3 construct: negative control antigen
Experimental: as §1

[3] = target: T1, human MHC class II DR protein …; test: as above
Experimental: as §1

[4] = target: T1, human MHC class II DR protein …; test: SPR (BIAcore), MHCII on CM5 chip
[5] = target: chimeric 0401-IE class II molecule on cells of transgenic mice (human/murine chimera); test: cell-based or functional assay
[6] = target: T1, human MHC class II DR protein …; test: SPR (BIAcore), MHCII on CM5 chip
[7] = target: T1, human MHC class II DR protein …; test: SPR (BIAcore), 3 preparations on 3 chips (500, 4000, 3000 RU)
[8] = target: HLA-DR on MHH-CALL-4 cells (human); test: cell-based or functional assay
BSA [9] = target: T2, BSA; test: ELISA, purified coated protein, OD at 370 nm minus background
[10] = target: T1, human MHC class II DR protein …; test: SPR (BIAcore), IgG4 over MHCII on CM5 chip
HLA-DR on L-428 cells = HLA-DR on L-428 cells (human); test: cell-based or functional assay
HLA-DR on RAJI cells = HLA-DR on RAJI cells (human); test: cell-based or functional assay
[11] = target: HLA-DR on GRANTA-519 cells (human); test: cell-based or functional assay
[12] = target: HLA-DR on KARPAS-422 cells (human); test: cell-based or functional assay
[13] = target: HLA-DR on RPMI-8226 cells (human); test: cell-based or functional assay
HLA-DR on BONNA-12 cells = HLA-DR on BONNA-12 cells (human); test: cell-based or functional assay
[14] = target: HLA-DR on KARPAS-299 cells (human); test: cell-based or functional assay
HLA-DR on HD-MY-Z cells = HLA-DR on HD-MY-Z cells (human); test: cell-based or functional assay
HLA-DR on L1236 cells = HLA-DR on L1236 cells (human); test: cell-based or functional assay
HLA-DR on L-363 cells = HLA-DR on L-363 cells (human); test: cell-based or functional assay
HLA-DR on EOL-1 cells = HLA-DR on EOL-1 cells (human); test: cell-based or functional assay
HLA-DR on BJAB cells = HLA-DR on BJAB cells (human); test: cell-based or functional assay
HLA-DR on SR-786 cells = HLA-DR on SR-786 cells (human); test: cell-based or functional assay
HLA-DR on KM-H2 cells = HLA-DR on KM-H2 cells (human); test: cell-based or functional assay
HLA-DR on HDLM-2 cells = HLA-DR on HDLM-2 cells (human); test: cell-based or functional assay
HLA-DR on ARH-77 cells = HLA-DR on ARH-77 cells (human); test: cell-based or functional assay
[15] = target: HLA-DR on MHH-PREB-1 cells (human); test: cell-based or functional assay
HLA-DR on MN-60 cells = HLA-DR on MN-60 cells (human); test: cell-based or functional assay
[16] = target: T4, HLA-DR (DRA*0101/DRB1*0401) on PRIESS cells (human, UniProt P01903 26-254; P01911 30-266); test: cell-based or functional assay
T4 MHC II alpha: not shown
T4 MHC II beta: not shown

HLA-DR on NALM-1 cells = HLA-DR on NALM-1 cells (human); test: cell-based or functional assay
[17] = target: HLA-DR on MHH-CALL-4 cells (human); test: cell-based or functional assay; remark: listed apart in the source
HLA-DR on DOHH-2 cells = HLA-DR on DOHH-2 cells (human); test: cell-based or functional assay
HLA-DR on LP-1 cells = HLA-DR on LP-1 cells (human); test: cell-based or functional assay
HLA-DR on HC-1 cells = HLA-DR on HC-1 cells (human); test: cell-based or functional assay
[18] = target: T1, human MHC class II DR protein …; test: BiaCore, IgG4
Experimental: The affinities for anti-HLA antibody fragments of the invention were measured as follows. All measurements were conducted in HBS buffer (20 mM HEPES, 150 mM NaCl, pH 7.4) at a flow rate of 20 µl/min at 25° C. on a BIAcore3000 instrument (Biacore AB, Sweden). MHC class II DR protein (prepared as example 1) was diluted in 100 mM sodium acetate pH 4.5 to a concentration of […], and coupled to a CM5 chip (Biacore AB) using standard EDC-NHS coupling chemistry with subsequent ethanolamine treatment as manufacturers directions. The coating density of MHCII was adjusted to between 500 and 4000 RU. Affinities were measured by injection of 5 different concentrations of the different antibodies and using the standard software of the Biacore instrument. Regeneration of the coupled surface was achieved using 10 mM glycine pH 2.3 and 7.5 mM NaOH.

T2 sequence (P02769 25-607 limits assumed): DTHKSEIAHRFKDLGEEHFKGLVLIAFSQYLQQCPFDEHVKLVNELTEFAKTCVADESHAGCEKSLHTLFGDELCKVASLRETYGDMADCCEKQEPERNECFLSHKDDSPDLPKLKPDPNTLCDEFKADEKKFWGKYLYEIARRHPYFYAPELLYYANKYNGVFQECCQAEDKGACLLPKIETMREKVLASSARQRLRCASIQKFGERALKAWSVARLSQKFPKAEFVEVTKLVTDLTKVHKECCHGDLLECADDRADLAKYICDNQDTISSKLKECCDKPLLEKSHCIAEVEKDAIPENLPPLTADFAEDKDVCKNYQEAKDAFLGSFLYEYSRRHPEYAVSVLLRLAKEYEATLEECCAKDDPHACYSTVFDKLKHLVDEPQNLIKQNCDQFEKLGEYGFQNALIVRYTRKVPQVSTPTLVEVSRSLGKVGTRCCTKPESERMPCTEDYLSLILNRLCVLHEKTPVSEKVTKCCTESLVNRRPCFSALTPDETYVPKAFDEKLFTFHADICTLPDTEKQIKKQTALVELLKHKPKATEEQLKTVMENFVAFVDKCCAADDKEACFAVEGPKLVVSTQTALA
T3 sequence (P00698 19-147): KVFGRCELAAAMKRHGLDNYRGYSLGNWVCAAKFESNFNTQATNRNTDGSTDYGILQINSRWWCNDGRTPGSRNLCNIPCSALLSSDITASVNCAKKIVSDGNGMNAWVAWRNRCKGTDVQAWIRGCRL

B1: MS-GPC-1 scFv (scFv)
chain: EVQLKESGPALVKPTQTLTLTCTFSGFSLSTSGVGVGWIRQPPGKALEWLALIDWDDDKYYSTSLKTRLTISKDTSKNQVVLTMTNMDPVDTATYYCARQYGHRGGFDHWGQGTLVTVSSAGGGSGGGGSGGGGSGGGGSDIVLTQPPSVSGAPGQRVTISCSGSSSNIGSNYVSWYQQLPGTAPKLLIYDNNQRPSGVPDRFSGSKSGTSASLAITGLQSEDEADYYCQSYDFNESVFGGGTKLTVLG
Kd [1]: 1500 nM
koff [1]: 0.061 s⁻¹
kon [1]: 41300 M⁻¹ s⁻¹

B2: MS-GPC-8-6-47 Fab (Fab, V domains shown)
VH: QVQLKESGPALVKPTQTLTLTCTFSGFSLSTSGVGVGWIRQPPGKALEWLALIDWDDDKYYSTSLKTRLTISKDTSKNQVVLTMTNMDPVDTATYYCARSPRYRGAFDYWGQGTLVTVSS
VL: DIVLTQPPSVSGAPGQRVTISCSGSESNIGSNYVSWYQQLPGTAPKLLIYDNNQRPSGVPDRFSGSKSGTSASLAITGLQSEDEADYYCQSYDYDHYVFGGGTKLTVLG
notes: Fab: VH-CH1 with FLAG tag and STREP tag II, VL-CL; VH residue 1 is Q in Fab
ELISA signal (BSA [2]): 0.008
binding result (BSA [2]): no binding (tested: 100 ng/well)
ELISA signal (lysozyme): 0.013
ELISA signal [3]: 1.4
Kd [4]: 3.18 nM
koff [4]: 0.00062 s⁻¹
kon [4]: 197000 M⁻¹ s⁻¹
IC50 of inhibition of IL-2 secretion from T-Hyb 1 cells [5]: 2.6 nM (half the concentration of the Fab)
Maximum inhibition(%) of IL-2 secretion [5]: 100%
Kd [6]: 3.2 nM
koff [6]: 0.00062 s⁻¹
kon [6]: 200000 M⁻¹ s⁻¹

B3: MS-GPC-8-6 Fab (Fab, V domains shown)
VH: QVQLKESGPALVKPTQTLTLTCTFSGFSLSTSGVGVGWIRQPPGKALEWLALIDWDDDKYYSTSLKTRLTISKDTSKNQVVLTMTNMDPVDTATYYCARSPRYRGAFDYWGQGTLVTVSS
VL: DIVLTQPPSVSGAPGQRVTISCSGSSSNIGSNYVSWYQQLPGTAPKLLIYDNNQRPSGVPDRFSGSKSGTSASLAITGLQSEDEADYYCQSYDYDHYVFGGGTKLTVLG
notes: as for B2
Kd [7]: 58.6 nM
koff [7]: 0.0055 s⁻¹
kon [7]: 96000 M⁻¹ s⁻¹
maximum capacity to kill MHH-Call 4 cells [8]: 76%
ELISA signal [3]: 1.31
Kd [4]: 58.6 nM
koff [4]: 0.00548 s⁻¹
kon [4]: 96000 M⁻¹ s⁻¹
IC50 of inhibition of IL-2 secretion from T-Hyb 1 cells [5]: 20 nM (half the concentration of the Fab)
Maximum inhibition(%) of IL-2 secretion [5]: 100%

B4: MS-GPC-8-6-13 IgG4 (antibody, V domains shown)
VH: QVQLKESGPALVKPTQTLTLTCTFSGFSLSTSGVGVGWIRQPPGKALEWLALIDWDDDKYYSTSLKTRLTISKDTSKNQVVLTMTNMDPVDTATYYCARSPRYRGAFDYWGQGTLVTVSS
VL: DIVLTQPPSVSGAPGQRVTISCSGSESNIGANYVTWYQQLPGTAPKLLIYDNNQRPSGVPDRFSGSKSGTSASLAITGLQSEDEADYYCQSYDYDHYVFGGGTKLTVLG
notes: human IgG4 (constant region EMBL K01316) with lambda constant region (EMBL M18645), from CHO-K1 cells; also called 305D3; IgG form of MS-GPC-8-6-13
binding result (BSA [9]): no binding
Kd [10]: 0.5 nM
koff [10]: 3e-05 s⁻¹
kon [10]: 70000 M⁻¹ s⁻¹
% Killing by mAb, 50 nM, 4 h (HLA-DR on L-428 cells): 92%
% Killing by mAb, 50 nM, 4 h (HLA-DR on RAJI cells): 83%
% Killing by mAb, 50 nM, 4 h [11]: 73%
% Killing by mAb, 50 nM, 4 h [12]: 71%
% Killing by mAb, 50 nM, 4 h [13]: 19%
% Killing by mAb, 50 nM, 4 h (HLA-DR on BONNA-12 cells): 86%
% Killing by mAb, 50 nM, 4 h [14]: 76%
% Killing by mAb, 50 nM, 4 h (HLA-DR on HD-MY-Z cells): 72%
% Killing by mAb, 50 nM, 4 h (HLA-DR on L1236 cells): 66%
% Killing by mAb, 50 nM, 4 h (HLA-DR on L-363 cells): 19%
% Killing by mAb, 50 nM, 4 h (HLA-DR on EOL-1 cells): 53%
% Killing by mAb, 50 nM, 4 h (HLA-DR on BJAB cells): 64%
% Killing by mAb, 50 nM, 4 h (HLA-DR on SR-786 cells): 26%
% Killing by mAb, 50 nM, 4 h (HLA-DR on KM-H2 cells): 87%
% Killing by mAb, 50 nM, 4 h (HLA-DR on HDLM-2 cells): 90%
% Killing by mAb, 50 nM, 4 h (HLA-DR on ARH-77 cells): 87%
% Killing by mAb, 50 nM, 4 h [15]: 11%
% Killing by mAb, 50 nM, 4 h (HLA-DR on MN-60 cells): 67%
% Killing by mAb, 50 nM, 4 h [16]: 74%
% Killing by mAb, 50 nM, 4 h (HLA-DR on NALM-1 cells): 65%
% Killing by mAb, 50 nM, 4 h [17]: 43%
% Killing by mAb, 50 nM, 4 h (HLA-DR on DOHH-2 cells): 53%
% Killing by mAb, 50 nM, 4 h (HLA-DR on LP-1 cells): 73%
% Killing by mAb, 50 nM, 4 h (HLA-DR on HC-1 cells): 93%
IC50 of inhibition of IL-2 secretion from T-Hyb 1 cells [5]: 0.42 nM
Maximum inhibition(%) of IL-2 secretion [5]: 100%
Kd [18]: 0.5 nM
koff [18]: 3.3e-05 s⁻¹
kon [18]: 71000 M⁻¹ s⁻¹

B5: MS-GPC-8-6-27 Fab (Fab, V domains shown)
VH: QVQLKESGPALVKPTQTLTLTCTFSGFSLSTSGVGVGWIRQPPGKALEWLALIDWDDDKYYSTSLKTRLTISKDTSKNQVVLTMTNMDPVDTATYYCARSPRYRGAFDYWGQGTLVTVSS
VL: DIVLTQPPSVSGAPGQRVTISCSGSDSNIGANYVTWYQQLPGTAPKLLIYDNNQRPSGVPDRFSGSKSGTSASLAITGLQSEDEADYYCQSYDYDHYVFGGGTKLTVLG
notes: as for B2
ELISA signal (BSA [2]): 0.003
binding result (BSA [2]): no binding (tested: 100 ng/well)
ELISA signal (lysozyme): 0.006
ELISA signal [3]: 1.3
Kd [4]: 6.3 nM
koff [4]: 0.0011 s⁻¹
kon [4]: 180000 M⁻¹ s⁻¹
IC50 of inhibition of IL-2 secretion from T-Hyb 1 cells [5]: 3 nM (half the concentration of the Fab)
Maximum inhibition(%) of IL-2 secretion [5]: 100%
Kd [6]: 6.3 nM
koff [6]: 0.0011 s⁻¹
kon [6]: 180000 M⁻¹ s⁻¹
